According to the nanobody polyreactivity screen of Harvey et al. (2022):

Experiment: yeast display, Sf9 membrane polyspecificity reagent, FACS + sequencing; frameworks hold sequencing errors
Procedure, shortened: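 Sorting gates, low and high (top ~1%), were placed on anti-HA fluorescence to track expression and on streptavidin fluorescence to track reagent binding. A clone's polyreactivity label is taken from the gate it came out of. The reagent was 10% biotinylated, detergent-solubilized Sf9 membrane, applied for 1 hour at 4 °C to galactose-induced yeast display cells.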

| Sequence | polyreactivity (PSR sort gate) |
| --- | --- |
| QVQLVESGGGLVQAGGSLRLSCAASGSTFSYYAMGWYRQAPGKERELVAANTSGCRSKYADSVKGRFTISRDNAKNTVYLQINSLKPEDTAVYYCAKRIENFSGSLAGRWYDYWGQGTQVNVSS | high polyreactivity |
| QVQLVESGGGLVQAGGSLRLSCAASGSTFYRNAMGWYRQAPGKEREFVAAISFRGGGTYADSVKGRFTISRDNAKNTVYLQMNSLKPEDTAVYYCAADHLSYRRRYEYWGLGTQVTVSS | low polyreactivity |
| QVQLVESGGGLVQAGGSLRLSCAASGSTFPSYAMGWYRQAPGKERELVAAINSGGGTNYADSVKGRFTISRDNAKNTVYFQMNSLKPEDTAVYYCAKSRDDYTNTEGGYWGQGTQVTVSS | low polyreactivity |
| QVQLVESGGGLVQAGGSLRLSCAASGGTFDWNTMGWYRQAPGKERELVASITSGGRTNYADSVKGRFTISRDNAKNTVYLQMNSLKPEDTAVYYCAKYRRSAYPWQTWVGQKFDYWGQGTQVTVSS | low polyreactivity |
| QVQLVESGGGLVQAGGSLRLSCAASGSIFRSYAMGWYRHAPGKERELVASISRRGGSTYYADSVKGRFTSSRDNSKNTVYLHMNSRKPEDTAVYYCAAVRYNSRVSTTTSEMYYWGQGTQVTVSS | low polyreactivity |
| QVQLVESGGGLVQAGGSLRLSCAASGSTFIYYAMGWYRQAPGKEREFVAAISYRGGSTYYADSVKGRFTISRDNAKNTVYLQMNSLKPEDTAVYYCAASYRKWNDYWGQGTQVNVSS | high polyreactivity |
| QVQLQESGGGLVQASGSLRLSCASSGNIFPDYVMAWYRLAPGKEREFVANITGGSTTNYADSVKGRFTISRDNAKNTVDLQMNSLTPEDTAVYYCAVNFGTVVLYLYWGQGTQVSVSS | high polyreactivity |
| QVQLVESGGRLVQAGGTLRLSCADSGNTLHVYAMGWYRQAPGKERELVARITGGGRKYYADSVKGRFTISRDNAKNTVYLLMNSLNPEDTAVYYCATDYYGHKFLYDYWGQGTQVTVSS | low polyreactivity |
| QVHLVESGGGLVQAGGSLRLSCAASGIIFLVYAMGWYRQAPGKEWELVAGISGSATSTNYADSVKGRFTISRDNAKNTVYLQMNSLKPEDTAVYYCAASYYGYYVPDNSKYGYWGQGTQVTVSS | low polyreactivity |
| QVQLVESGGGLVQAGGSLRLSCAASGFIFGYNAMGGYRLAPGKERELVAAISSYGGSPYYADSVKGRFTISRDNAKNTVYLQMNTLKPEDTAVYYWAARPVALRKYDYWGQGTQLTVSS | low polyreactivity |
| QFQLVESGGGLVQAGGSLRLSCAASGRIFYSYAMGWYRQAPGKERELVAAISRSGTSTFYADSLKGRFTISRDNAKNTVYLQMNSLKPEDTAVYYCNAVISPYVIRSEYWGQGTQVTVSS | low polyreactivity |
| QVQLVESGGGLVQAGGSLRLSCAASGYIFVSYDMGWYRQAPGKERELVAAISWRGGSTYYADSVKGRFTISRDNAMNTVYLQMNSLKPEDTAVYYCAVDDWLDWLFADFGYWGQGTQVTVSS | low polyreactivity |
| QVQLVESGGGLVQAGGSLRLSCAASGSTFNRYAMGWYRQAPGKERELVASISWGGGRTYYADSVKGRFTISRDNAKNTVYLQMNSLKPEDSAVYYCAAGGALASQWSTKLYDYWGQGTQVTVSS | low polyreactivity |
| QVQLVESGGGLVQAGGSLRLSCAASGSIFGYNAMGWYRQAPATERELVATIRNGGITNYADSVKGRFTISRDNAKNTVYLQMNSLKPEDTAVYYCAADVVQYLYYFRLDYWGQGTQVTVSS | low polyreactivity |
| QVQLVESGGGLVQAGGSLRLSCAASGSIFINNTMGWYRQAPGKERELVAAISITGGSTYYADSVKGRFTISRDNAKNTVYLQMNSLKPEDTAVYYCAADPLQLYDYNYWGQGTQVTVSS | low polyreactivity |
| QVQLQESGGGVQAGGSLRLSCAASGSISAPILMGWYRQAPGKERELVAGIGGGANSYYADSVKGRFTVSRDNAKYTVYLQMNSLKPEATAVYYCAAGDYYWTNFGYWGQGTQVTASS | high polyreactivity |
| QVQLVESGGGLVQAGGSLRLSCAASGFTFRYNAMGWYRQAPGKERELVAAITNGGSTYADSVKGRFTISRDNAKNTVYLQMNSLKPEDTAVYYCAADYFVLTYYLWSYSPYKSFYYWGQGTQVTLSS | low polyreactivity |
| QVQLGESGGGLVQAGGSLRLICAASGSIFDVNAMGWYRQAPGKERELVAAISDSGGSTYYADSVKGRFTISRDNAKNTVYLQMNSLKPEDTAVYYCNADWSWYNYDDFDYWGQGTQVTVSS | low polyreactivity |
| QVQLVESGGGLVQEGGSLRLSCAASGSIFVLYAMGWYRQAPGKERQLVAAINYEGASTYYADSVKGRFTISRDNAKITVYLQMNSLKPEDKAVFYCAARWQFNIDVQLYLFEYWGQGTQVTVSS | low polyreactivity |
| QVQLVESGGGLVQAGGSLRLSCAASGFIIAGYAMGWYRQAHGKEMELVAAISSRGGSTYYADSVKGRFTISRDNAKNTFYLQMNSLKPEDTSVYYCARTTPTGRQYRRYDYWGQGTQVTESS | low polyreactivity |
| QVQLVESGGGLVQAGGSLRLSCAASGSSFVLYAMGWYRQAPGKERELVAAISLSVGSTYYADSVKGRFTISRDNAKNTVYLQMNSLKPEDTAVYDCNARSSIVSYYWYHYWTREFDYWGQGTQVTVSS | low polyreactivity |
| QVQLVESGGGLVQAGGRLRLSCAASGSIFDIYAMGLYRQAPGKERELVASIRRRGGSTYYADSVKGRFTISRDNAKNTVYLQMNSLKPEDTAVYYCNARRVWLRTTGTNWPERGYWGQGTQVTVSS | high polyreactivity |

| Sequence | polyreactivity (PSR sort gate) |
| --- | --- |
| QVQLVESGGGLVQAGGSLRLSCAASGSTFRIYAMGWYRQAPGKERELVAAITSGGDTNYADSVKGRFTISRDNANNTVYLQMKSLKPEDTSVYYCAADGHSVYTELDYWGQGTQVTVSS | low polyreactivity |
| QVQLVESGGGLVQAGGSLRLSCAASGNTFATYAMGWYRQAPGKERELVAGITVDGASTNYADSVKGRFTISRDNAKNTVYLQMNSLKPEDTAVYYCNADYTTQVYDSTWPGDFGYWGQGTQVTVSS | high polyreactivity |
| QVQLVESGRGLVQAGGSLRLSCASSGTILERYVMGWYRQAPGKERELVAAITISRGSTYYADSVKGRFTISRDNAKNTVYLEMTRLKPEDTAVYYCAARNRYWGQGTKVTVSS | high polyreactivity |
| QVQLVESGGGLVQAGGSLRLSCAASGSIFGLNAMGWYRQAPGKERELVAAISCGSTNYADSVKGRFTISRDNAKYTVYLQMNSLKPEDTAVYYCAARARRRYYYWGQGTQVTVSS | high polyreactivity |
| QVQLVESGGGLVQAGGSLRLSCAASGSTFAVYAMGWNRQAPGKERELVASITRGGSTYYADSVKGRFTISRDNAKYTVYLQMNSLKPEDTAVYYCADSITHYWYGYWGQGTQVTVSS | high polyreactivity |
| QVQLVESGGGLVQAGGSLRLSCAAYGSIFRKYVMGWYRQAHGKERELVAVISSGTGTYYADSVKGRFTISRDNAKNTVYLQMNSLNPEDTAVYYCAARVGRYGYSQYYYWGHGTQVTVSS | high polyreactivity |
| QVQLVESGGGLVQAGGSLRLSCAASGRIFVRNAMGWYRQAPGKERELVADITNGGSTNYADSVKGRFTISRDNAKNTVYLQMNSLKPEDTAVYYCAADTLGVYDGDYWGQGTQVTVSS | low polyreactivity |
| QVQLVESGGGLVQAGGSLRLSCASSGFTFWYTMGWYRQAPGKEREFVAAITSGGGRTYYADSVKGRFTISRDNAKNTVYLQMNSLKPEETAVYYSAADSYYSWYDYWVQGTQVTVSS | high polyreactivity |
| QVQLVESGGGLVQAGGSLRLSCAASGSIFPAYAMGWYRQAPGKERELVAAITFSGGRTYYADSVKGRFTISRDNAKNTVYLQMNSLKPEDTAVYYCAAYGAPSGTGAKYGYWGQGTQVTVSS | low polyreactivity |
| QVQLVESGGGLVQAGGSLRISCAASGSTFGVNARGWYRQAPGKERELVAGITWTGGSTYYADSVKGRFTISRDNAKNTVYVQMNSLKPEDTAVYFCAKAWYSSYYDDSEDSWGQGTQVTVSS | low polyreactivity |
| QVQLVESGGGLVQAGGSLRLSCAASGGTRFTNAMGWYRQAPGKEREMVAAISWRGGRTYYADSVKGRFTISRDNAKNTVYLQMNSQKPEDTAVYYCAAASAAGYDYWGQGTQVTVSS | low polyreactivity |
| QVQHVESGGGLVQAGGSLRLSCAASGRTFARYTMGWYRQAPGKERELVAVISRSGGSTYYADSVKGRFTISRDNAKNSVYLQMNSVKPEDTAVYYCAAGDFVVSTLEYYYWGQGTQVTVSS | high polyreactivity |
| QVQLVESGGGLVQAGGSLRLSCAASGITFYWYTMGWYRQAPGKERELVADIDGDGGSTYYAVSVKGRFTISRDNAKNTVYLLMNSVKPEDTGVYFCAAQVWPWGYDYWGQGTQVTVSS | high polyreactivity |
| QVQIVESGGGLVQAGGSLRLSCAASVRTQRYYDMGCYRQAPVKERELVAAISSGGSTYYGDSLKGRFSISRDNAKNTVYLEMNSLKPEDTEVYYCAKRVSNWVSGGGYYYWGQCTQVTVSS | high polyreactivity |
| QVQLVESGGGLVQAGGSLRLSCAASGLTLAYAMGWYRQPPGKEREFVAAISSSGGSTYYADSVKGRFTISRDNAKNTVYLQMNSLKPEDTAVYYCAARTNPGRYYYRFSGGSWGQGTQVTVSS | high polyreactivity |
| QVQLVESGGGLVQAGGSLRLSCAASGITFPFYAMGWYRQAPGKERELVAAISWSDVDTYYADSVKGRFTISRDNAKNTVYLQMNSLKPEDTAVYYCAVSGVHPYWSDYEYWGQGTQVTVSS | low polyreactivity |
| QVQHVESGGGLVQAGGSLRLSCAASGRIFVNYAMGWSRQAPGKERELVAAITYIDSGTYYADSVKGRFTISRDNAKNTVYFQRNSLKPEDTAVYYCAVRLNSDSNRKTQKYGYWGQGTQVTVSS | low polyreactivity |
| QVQLVESGGGLVQAGGSLRLSCAPSGSIFGGYAMGWYRQAPGKERELVAGITYSGDSTYYADSVKGRFTISRDNAKYTVYLQMNSLKPEDTAVYYCNADQRVDHDDFDYWGQGTQVTVSS | low polyreactivity |
| QVQLVESGGGLVQAGGSLRLSCAASGSTFVGNAMGWYRQAPGKERELVAAISRTGGSTYYADSVKGRFTISRDNAKNTVYLQMNSLKPEDTAVYYCNAYTRYSSRRGIGDYWGQGTQVTVSS | high polyreactivity |
| QVQLVESGGGLVQAGGSLRLSCAASGSIFFRYALAWYRQAPGKERELVASITSGGSTYYADSVKGRFTISRDNAKNTVYLQMNSLKPEDTAVYYCNALPYRYRRYDYWGQGTQVTVSS | low polyreactivity |
| QVQLLESGGGLVQAGGSLRLSCAASGYTFKAYAMGWYRQAPGKERELVAAISRGGRTNYADSVKGRFTISRDNAKYTVYLQMNSLKPEDTAVYYCNTQRQLGERFYDRSRQGDYWGHGTQVTVSS | high polyreactivity |
